Results: the Immune Epitope Database (IEDB)
pKd: −log10 of the molar value.

Key:
HLA-B*07:02 = experiment: IEDB peptide-MHC binding, purified MHC/competitive/radioactivity; filed as Kd, often an IC50 or EC50 that approximates it; ≥ and ≤ were set here for values at or beyond the usual limits of such assays; details: source organism: Vaccinia virus WR
HLA-A*11:01 = experiment: as above; details: source organism: Vaccinia virus WR

| Sequence | pKd (HLA-B*07:02) | pKd (HLA-A*11:01) |
| --- | --- | --- |
| LPRPDTRHL | 7.85 |  |
| RPSTRNFFEL | 7.96 |  |
| AFEFINSLLK |  | 6.33 |
